From PMC7545742, “A Toolbox for Site-Specific Labeling of RecQ Helicase With a Single Fluorophore Used in the Single-Molecule Assay”

Experiments:
wild-type RecQ helicase = wild-type RecQ helicase (Escherichia coli, UniProt P15043 1-609); test: smFRET; EFRET 0.92 to 0.54; bound dwell time 4.47 +/- 0.23 s; smFRET on DNA with biotinylated strand in reaction chamber; 5 nM RecQ-Cy5 bound 2 min, then washed; reaction buffer composition, pH and temperature not in the material; conditions: protein: recombinant; label: Cy3 3' of strand 1; internal Cy5 after nt 4 and biotin 3' of strand 2; 3' overhang 10 nt, 16 bp stem; one A:G mismatch (strand 1 nt 8)
[1] = target: T1, RecQ-Cy5 (sortase A ligation of RecQ516-LPETG and Cy5-GGG-HRDC) (Escherichia coli, UniProt P15043 1-516+=LPETGGG+524-609+=VD, E609C;internal_change); test: smFRET; 5 nM RecQ-Cy5, free protein washed off; EFRET 0 to ~0.5; duration 5.17 +/- 0.82 s; smFRET on DNA with biotinylated strand in reaction chamber; 5 nM RecQ-Cy5 bound 2 min, then washed; reaction buffer composition, pH and temperature not in the material; conditions: protein: recombinant; tags: Cy5-maleimide at C610; label: Cy3 3' of strand 1; biotin 3' of strand 2; 3' overhang 10 nt, 18 bp stem; one A:G mismatch (strand 1 nt 8)
[2] = target: T1, RecQ-Cy5 (sortase A ligation of …); test: smFRET; 5 nM RecQ-Cy5, free protein washed off; EFRET 0 to ~0.84; duration 4.65 +/- 0.17 s; HRDC contacts 3' end; smFRET on DNA with biotinylated strand in reaction chamber; 5 nM RecQ-Cy5 bound 2 min, then washed; reaction buffer composition, pH and temperature not in the material; conditions: protein: recombinant; tags: Cy5-maleimide at C610; label: Cy3 3' of strand 1; biotin 3' of strand 2; 3' overhang 15 nt, 18 bp stem; one A:G mismatch (strand 1 nt 8)
[3] = target: T1, RecQ-Cy5 (sortase A ligation of …); test: smFRET; RecQ-Cy5, same conditions (5 nM); EFRET 0 to ~0.92; duration 5.19 +/- 0.28 s; HRDC contacts 5' end; smFRET on DNA with biotinylated strand in reaction chamber; 5 nM RecQ-Cy5 bound 2 min, then washed; reaction buffer composition, pH and temperature not in the material; conditions: protein: recombinant; tags: Cy5-maleimide at C610; label: Cy3 5' of strand 1; biotin 5' of strand 2; fork 1:2, 17 bp stem, 5' arm 7 nt (strand 1), 3' arm 10 nt (strand 2)

B1: 16 bp with 3' 10-nt overhang, Cy3/Cy5 (mixed)
DNA 1: AATCCGTAGAGCAGAGGTGTGTGTGG
DNA 2: CTCTGCTCGACGGATT
modifications: none
B1: binds (wild-type RecQ helicase).

B2: 3' 10-nt overhang DNA, Cy3 (mixed)
DNA 1: AATCCGTAGAGCAGAGGTGTGTGTGGTG
DNA 2: ACCTCTGCTCGACGGATT
modifications: none
B2: binds [1].

B3: 3' 15-nt overhang DNA, Cy3 (mixed)
DNA 1: AATCCGTAGAGCAGAGGTGTGTGTGGTGTTTTT
DNA 2: ACCTCTGCTCGACGGATT
modifications: none
B3: binds [2].

B4: fork DNA, 10-nt 3' overhang and 7-nt 5' overhang (mixed)
DNA 1: TTTTTTTATGTATGACAAGGAAGG
DNA 2: CCTTCCTTGTCATACATAAATTTTTTT
modifications: none
B4: binds [3].
